B1: P1243 (evasin from Amblyomma americanum), purified, C-terminal StrepII:8xHis tag (natural protein)
chain: ETGRNHTEDNSTEYYDYEEARCACPARHLNNTNGTVLKLLGCHYFCNGTLCTAPDGYPCYNLTAQQVRTLTTYPNTSCAVGVCMKGTCVKNGTMEQCFKTP
B2: CCL22 (ligand, human, UniProt O00626 25-93, looked up)
chain: GPYGANMEDSVCCRDYVRYRLPLRVVKHFYWTSDSCPRPGVVLLTFRDKEICADPRVPWVKMILNKLSQ
notes: source: bought: Peprotech
B3: CCL3L1 (ligand, human, UniProt P16619 24-93, looked up)
chain: APLAADTPTACCFSYTSRQIPQNFIADYFETSSQCSKPSVIFLTKRGRQVCADPSEEWVQKYVSDLELSA
notes: source: bought: Peprotech
B4: CCL3 (ligand, human, UniProt P10147 24-92, looked up)
chain: SLAADTPTACCFSYTSRQIPQNFIADYFETSSQCSKPGVIFLTKRSRQVCADPSEEWVQKYVSDLELSA
notes: source: bought: Peprotech
B5: CCL1 (ligand, human, UniProt P22362 24-96, looked up)
chain: KSMQVPFSRCCFSFAEQEIPLRAILCYRNTSSICSNEGLIFKLKRGKEACALDTVGWVQRHRKMLRHCPSKRK
notes: source: bought: Peprotech
B6: CCL5 (ligand, human, UniProt P13501 24-91, looked up)
chain: SPYSSDTTPCCFAYIARPLPRAHIKEYFYTSGKCSNPAVVFVTRKNRQVCANPEKKWVREYINSLEMS
notes: source: bought: Peprotech

Assays:
CCL3L1 = target: B3; experiment: cell-based or functional assay
CCL3 = target: B4; experiment: cell-based or functional assay
CCL5 = target: B6; experiment: cell-based or functional assay
[1] = target: B1; experiment: BLI; titration; evasin immobilised on the sensor through the C-terminal His tag; chemokine 300 nM to 0.4 nM (CXCL2: 600 nM to 1.2 nM), at least five concentrations; non-interacting reference protein; one-site binding fit or steady state analysis; conditions: both partners purified

Binder: B1
- mean IC50 (three biological replicates) of inhibition of THP-1 cell migration induced by the EC80 dose of CCL3L1 (CCL3L1): 1e-09 M
- mean IC50 (three biological replicates) of inhibition of THP-1 cell migration induced by the EC80 dose of CCL3 (CCL3): 6.5e-09 M
- mean IC50 (three biological replicates) of inhibition of THP-1 cell migration induced by the EC80 dose of CCL5 (CCL5): 8.9e-09 M

Binder: B2
- binding result [1]: binds

Binder: B3
- binding result [1]: binds

Binder: B4
- binding result [1]: binds

Binder: B5
- binding result [1]: binds

Binder: B6
- binding result [1]: binds

Reference: publication PMC5910400, “Genetically engineered two-warhead evasins provide a method to achieve precision targeting of disease-relevant chemokine subsets” (Scientific Reports, 2018)
